The target of assay [1] is T1, LgBiT-MR (mineralocorticoid receptor with LgBiT at the N-terminus) (UniProt P08235 1-984).
T1 construct: mineralocorticoid receptor (MR, NR3C2); NanoBiT fusion; also called pLgBiT-MR; source: HEK293T, transfected (calcium phosphate), in intact cells; not shown: LgBiT, N-terminal, kept
T1 sequence (looked up): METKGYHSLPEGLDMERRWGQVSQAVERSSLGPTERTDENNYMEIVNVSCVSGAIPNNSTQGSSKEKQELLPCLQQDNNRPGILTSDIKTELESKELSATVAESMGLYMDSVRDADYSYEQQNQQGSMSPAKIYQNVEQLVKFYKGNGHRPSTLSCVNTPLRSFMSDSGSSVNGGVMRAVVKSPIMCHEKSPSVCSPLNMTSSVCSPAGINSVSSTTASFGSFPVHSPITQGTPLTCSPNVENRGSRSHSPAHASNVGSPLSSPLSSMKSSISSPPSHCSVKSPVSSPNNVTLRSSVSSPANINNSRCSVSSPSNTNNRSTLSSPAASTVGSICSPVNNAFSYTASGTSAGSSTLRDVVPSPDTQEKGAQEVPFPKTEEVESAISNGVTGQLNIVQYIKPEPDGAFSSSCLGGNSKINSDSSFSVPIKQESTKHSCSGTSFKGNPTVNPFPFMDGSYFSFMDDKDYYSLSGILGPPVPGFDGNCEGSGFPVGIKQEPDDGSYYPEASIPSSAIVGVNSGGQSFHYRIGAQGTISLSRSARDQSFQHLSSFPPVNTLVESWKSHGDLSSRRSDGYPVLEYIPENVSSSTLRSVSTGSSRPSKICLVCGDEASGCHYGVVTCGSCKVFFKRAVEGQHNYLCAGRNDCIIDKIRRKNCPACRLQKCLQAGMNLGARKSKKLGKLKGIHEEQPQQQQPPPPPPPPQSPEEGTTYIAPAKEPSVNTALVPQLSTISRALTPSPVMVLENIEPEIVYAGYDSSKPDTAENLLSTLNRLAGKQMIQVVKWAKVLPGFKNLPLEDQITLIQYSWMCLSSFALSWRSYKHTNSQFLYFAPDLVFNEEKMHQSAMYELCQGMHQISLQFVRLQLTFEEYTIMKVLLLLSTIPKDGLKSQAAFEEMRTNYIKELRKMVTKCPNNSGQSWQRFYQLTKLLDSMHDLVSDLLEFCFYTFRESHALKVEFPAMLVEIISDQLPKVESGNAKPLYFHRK
Put plainly: split reporter (BiFC, NanoBiT); NanoBiT in intact HEK293T cells, Dex (10^-6 M) added after baseline, luminescence over 60 min, normalised to baseline and given as fold versus solvent. To be noted: partners not purified.

For assay [2], the target named is T1, LgBiT-MR (mineralocorticoid receptor …). Put plainly: split reporter (BiFC, NanoBiT); NanoBiT in intact HEK293T cells, Dex (10^-6 M) together with Spi (10^-5 M) added after baseline, luminescence over 60 min, normalised to baseline and given as fold versus solvent. To be noted: partners not purified.

Results on one molecule are retold here after PMC10425521, “Crosstalk between glucocorticoid and mineralocorticoid receptors boosts glucocorticoid-induced killing of multiple myeloma cells” (Cellular and Molecular Life Sciences: CMLS, 2023).

B1: GR-SmBiT (glucocorticoid receptor with SmBiT at the C-terminus) (receptor, UniProt P04150 1-777, looked up)
chain: MDSKESLTPGREENPSSVLAQERGDVMDFYKTLRGGATVKVSASSPSLAVASQSDSKQRRLLVDFPKGSVSNAQQPDLSKAVSLSMGLYMGETETKVMGNDLGFPQQGQISLSSGETDLKLLEESIANLNRSTSVPENPKSSASTAVSAAPTEKEFPKTHSDVSSEQQHLKGQTGTNGGNVKLYTTDQSTFDILQDLEFSSGSPGKETNESPWRSDLLIDENCLLSPLAGEDDSFLLEGNSNEDCKPLILPDTKPKIKDNGDLVLSSPSNVTLPQVKTEKEDFIELCTPGVIKQEKLGTVYCQASFPGANIIGNKMSAISVHGVSTSGGQMYHYDMNTASLSQQQDQKPIFNVIPPIPVGSENWNRCQGSGDDNLTSLGTLNFPGRTVFSNGYSSPSMRPDVSSPPSSSSTATTGPPPKLCLVCSDEASGCHYGVLTCGSCKVFFKRAVEGQHNYLCAGRNDCIIDKIRRKNCPACRYRKCLQAGMNLEARKTKKKIKGIQQATTGVSQETSENPGNKTIVPATLPQLTPTLVSLLEVIEPEVLYAGYDSSVPDSTWRIMTTLNMLGGRQVIAAVKWAKAIPGFRNLHLDDQMTLLQYSWMFLMAFALGWRSYRQSSANLLCFAPDLIINEQRMTLPCMYDQCKHMLYVSSELHRLQVSYEEYLCMKTLLLLSSVPKDGLKSQELFDEIRMTYIKELGKAIVKREGNSSQNWQRFYQLTKLLDSMHEVVENLLNYCFQTFLDKTMSIEFPEMLAEIITNQIPKYSNGNIKKLLFHQK
notes: glucocorticoid receptor (GR, NR3C1); NanoBiT fusion; also called pGR-SmBiT; source: HEK293T, transfected (calcium phosphate), in intact cells; not shown: SmBiT, C-terminal, kept
With B1, the “fold induction of NanoBiT luminescence versus solvent (with Dex)” value in assay [1] was roughly 8 fold. Also, the “fold induction of NanoBiT luminescence versus solvent (with Dex and Spi)” value in assay [2] is roughly 6 fold.
